1 substance from patent publication US20100254989A1 can be followed below.

One assay concerns the target human c-Met ECD (human) (UniProt P08581). Put plainly: SPR (Biacore T100), antibody captured by anti-Fc gamma, c-Met ECD in solution, 25 C. (In general: Surface plasmon resonance follows binding to a sensor surface in real time, without labels.)
Assay [1] concerns the target c-Met receptor on OVCAR-8 cells (human) (UniProt P08581). Put plainly: cell-based or functional assay.

For orientation: Kd means the constant that tells how readily two partners part at equilibrium. Read a high Kd as a looser complex. In turn, “BsAB01, trivalent bispecific <ErbB1-c-Met> antibody (full length cetuximab with one c-Met 5D5 single chain Fab fragment at the C-terminus of the knob heavy chain) (bispecific antibody)” displayed a Kd with human c-Met ECD (human) of 5.5 nM. Further, in assay [1], the % Internalization of c-Met after 2 h on OVCAR-8 cells (=100-% antibody on cell surface) was -14% and the % c-Met receptor on OVCAR-8 cell surface measured after 2 h worked out at 114%.
